The results in this text go back to patent publication US7217548B2, “N-acetylglucosaminlytransferase and polynucleotide encoding the same” (National Institute of Advanced Industrial Science and …, priority 2000, dated 2007).

The target in one test is T1, GnT-I (Homo sapiens, UniProt P26572).
T1 construct: Ig kappa chain secretory signal (N); made in house; host or cells: HEK293T (transient, secreted into serum-free medium)
T1 sequence (P26572 39-445 limits assumed): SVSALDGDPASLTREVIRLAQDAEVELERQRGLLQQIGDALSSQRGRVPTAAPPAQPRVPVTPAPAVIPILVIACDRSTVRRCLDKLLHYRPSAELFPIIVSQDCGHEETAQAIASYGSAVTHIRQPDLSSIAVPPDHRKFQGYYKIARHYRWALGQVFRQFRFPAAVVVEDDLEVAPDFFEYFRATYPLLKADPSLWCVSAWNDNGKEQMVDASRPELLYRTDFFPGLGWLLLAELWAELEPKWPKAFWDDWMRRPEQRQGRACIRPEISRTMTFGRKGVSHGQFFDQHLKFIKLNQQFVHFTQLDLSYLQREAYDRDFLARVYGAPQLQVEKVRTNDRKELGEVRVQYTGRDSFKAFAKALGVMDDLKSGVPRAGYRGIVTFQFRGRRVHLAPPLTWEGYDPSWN
The test is described as follows: GnT-I activity assay of solubilized enzymes. The note with it: method of Reference Example 2. The test is classed as biochemical. The protocol:
The activity of GnT-1 was assayed with a method by Yoshida et al. [Yoshida, S., Suzuki, M., Yamano, S., Takeuchi, M., Ikenaga, H., Kioka, N., Sakai, H., and Komano, T., Glycobiology, (1999), 9, 53–58] as described below. A 20 μl reaction solution was prepared by adding an enzyme source thereto so as to have a final concentration of 100 mM MES (pH 6.0), 20 mM MnCl2, 5 μM Manα1–6(Manα1–3)Manα1–6(Manα1–3)Manβ1–4GlcNAcβ1–4GlcNAc-PA(M5GN2-PA; Takara Shuzo, PA-Sugar Chain 017), 1 mM UDP-GlcNAc, 100 mM GlcNAc, 5 mM AMP, 1% Triton X-100, and 0.2% BSA. The reaction solution was incubated at 37° C. for 1 hour, and the reaction was terminated in boiling water. Thereafter, the reaction solution was analyzed by a reverse phase HPLC (Cosmosil 5C18-AR column) available from Nacalai Tesque.
When Manα1–6(Manα1–3)Manβ1–4GlcNAcβ1–4GlcNAc-PA (M3GN2-PA; Takara Shuzo, PA-Sugar Chain 016) was used as a sugar receptor, the same method was employed for analysis.

For a further test, the system named is OMGnT. The test is described as follows: OMGnT activity in serum-free medium of HEK293T cells expressing solubilized enzymes. The test is classed as biochemical, human. The note with it: serum-free medium of HEK293T transfectants. The protocol:
The enzyme solution was added to 140 mM MES [2-(N-morpholino) ethanesulfonic acid] buffer (pH 7.0) containing 0.4 mM Man-peptide, 0.2 mM UDP-[^3H]GlcNAc (up to 228,000 dpm/nmol), 10 mM MnCl2, 5 mM AMP, 200 mM GlcNAc, 2%(w/v) Triton X-100, 10% glycerol, 2 μg/ml antipain, 2 μg/ml chymostatin, 3 μg/ml pepstatin A, 2 μg/ml leupeptin, 1 mM benzamidine-HCl, and 1 mM PMSF (phenylmethylsulfonyl fluoride) to prepare 50 μl of reaction solution. After the reaction at 37° C. for 3 hours, the reaction was terminated by 3 minutes of boiling. The reaction mixture was then filtered with a filter Ultrafree-MC (Millipore) having a pore size of 0.22 μm to remove solids, and analyzed by Wakopak 5C18-200 column (4.6×250 mm, Wako Pure Chemical Industries, Ltd.). The separation was carried out using concentration gradient with Solution A and Solution B at a flow rate of 1.0 ml/min. […] Peptide detection was carried out at 214 nm, and the radioactivity of each fraction was assayed using a liquid scintillation counter.
Each secretory expression plasmid was transiently expressed in a HEK293T cell derived from human embryonic kidney. Usually, HEK293T cells were cultured in D-MEM (Gibco, #11995-065) containing 10% Fetal Calf Serum (Hyclone), 10 mM MEM Non-Essential Amino Acids solution (Gibco), 2 mM Glutamine (Gibco), and 100 units/ml Penicillin/100 μg/ml Streptomycin (Gibco). In a 6-well plate, 2 μg of plasmid was transfected into 50 to 70% confluent cells by calcium phosphate method. After overnight cultivation, the medium exchange was performed and the cultivation was continued for 48 hours [Pear, W. S., Nolan, G. P., Scott, M. L. and Baltimore, D., Proc. Natl. Acad. Sci. USA, (1993), 90, 8392–8396]. Further, the medium was exchanged with a serum-free medium, and after 48-hour cultivation, the supernatant was collected.
According to the method described in Example 1, OMGnT activity in the serum-free medium was assayed.

B1: His-Xpress-sGnT-I: control: solubilized human GnT-I enzyme, 407 amino acids from 39:Ser (protein)
chain: SVSALDGDPASLTREVIRLAQDAEVELERQRGLLQQIGDALSSQRGRVPTAAPPAQPRVPVTPAPAVIPILVIACDRSTVRRCLDKLLHYRPSAELFPIIVSQDCGHEETAQAIASYGSAVTHIRQPDLSSIAVPPDHRKFQGYYKIARHYRWALGQVFRQFRFPAAVVVEDDLEVAPDFFEYFRATYPLLKADPSLWCVSAWNDNGKEQMVDASRPELLYRTDFFPGLGWLLLAELWAELEPKWPKAFWDDWMRRPEQRQGRACIRPEISRTMTFGRKGVSHGQFFDQHLKFIKLNQQFVHFTQLDLSYLQREAYDRDFLARVYGAPQLQVEKVRTNDRKELGEVRVQYTGRDSFKAFAKALGVMDDLKSGVPRAGYRGIVTFQFRGRRVHLAPPLTWEGYDPSWN
modifications: left off: small tags and cut ends
notes: control: solubilized human GnT-I enzyme, 407 amino acids from 39:Ser
B1 displayed a GnT-I activity with GnT-I of 500 pmol/hr/ml medium. Besides, in the test with OMGnT, the OMGnT activity is on record as 0.4 pmol/hr/mg protein and the “OMGnT activity (in words)” value is “almost no activity”.

B2: His-Xpress-sOMGnT(S): solubilized human OMGnT, 414 amino acids 247:Ser to 660:Thr of SEQ ID NO: 2, secreted from HEK293T; plasmid named in Table 3 (protein, listed as Homo sapiens)
chain: SSAEEAECHWADTELNRRRRRFCSKVEGYGSVCSCKDPTPIEFSPDPLPDNKVLNVPVAVIAGNRPNYLYRMLRSLLSAQGVSPQMITVFIDGYYEEPMDVVALFGLRGIQHTPISIKNARVSQHYKASLTATFNLFPEAKFAVVLEEDLDIAVDFFSFLSQSIHLLEEDDSLYCISAWNDQGYEHTAEDPALLYRVETMPGLGWVLRRSLYKEELEPKWPTPEKLWDWDMWMRMPEQRRGRECIIPDVSRSYHFGIVGLNMNGYFHEAYFKKHKFNTVPGVQLRNVDSLKKEAYEVEVHRLLSEAEVLDHSKNPCEDSFLPDTEGHTYVAFIRMEKDDDFTTWTQLAKCLHIWDLDVRGNHRGLWRLFRKKNHFLVVGVPASPYSVKKPPSVTPIFLEPPPKEEGAPGAPEQT
modifications: His-Xpress tag
As to B2, the “GnT-I activity (in words)” value with GnT-I is on record as “did not exhibit activity at all”. Moreover, in the test with OMGnT, the OMGnT activity turned out to be 20 pmol/hr/mg protein and the “OMGnT activity (in words)” value was “significantly high OMGnT activity”.
